Patent US8475791B2, “Anti-IL-TIF antibodies and methods of use” (ZymoGenetics, Inc., priority 1999, dated 2013)

What was measured:
[1] = K-562 cytotoxicity assay (MTT); type: cell-based, human; conditions: human, K-562 cells, 100 uM, MTT absorbance
Experimental: (§1) The K-562 cell line (CRL-243, ATCC) has attained widespread use as a highly sensitive in vitro target for cytotoxicity assays. K-562 blasts are multipotential, hematopoietic malignant cells that spontaneously differentiate into recognizable progenitors of the erythrocytic, granulocytic and monocytic series (Lozzio, B B et al., Proc. Soc. Exp. Biol. Med. 166: 546-550, 1981).
(§2) K562 cells were plated at 5,000 cells/well in 96-well tissue culture clusters (Costar) in DMEM phenol-free growth medium (Life Technologies) supplemented with pyruvate and 10% serum (HyClone). Next day, human recombinant ZCYTO18 (Example 19), BSA control or retinoic acid (known to be cytotoxic to K562 cells) were added. Seventy-two hours later, the vital stain MTT (Sigma, St Louis, Mo.), a widely used indicator of mitochondrial activity and cell growth, was added to the cells at a final concentration of 0.5 mg/ml. MTT is converted to a purple formazan derivative by mitochondrial dehydrogenases. Four hours later, converted MTT was solubilized by adding an equal volume of acidic isopropanol (0.04N HCl in absolute isopropanol) to the wells. Absorbance was measured at 570 nm, with background subtraction at 650 nm. In this experimental setting, absorbance reflects cell viability. Results shown in Table 7 are expressed as % cytotoxicity.

[2] = test system: BaF3/CRF2-4/zcytor11 cells; assay: Alamar Blue proliferation assay, BaF3/CRF2-4/zcytor11 cells; type: cell-based, murine; conditions: for proliferative response (in words): 0.06-50 ng/ml, media without IL-3
Experimental: BaF3/CRF2-4/zcytor11 cells were spun down and washed in the complete media, described in Example 21A above, but without mIL-3 (hereinafter referred to as “mIL-3 free media”). The cells were spun and washed 3 times to ensure the removal of the mIL-3. Cells were then counted in a hemacytometer. Cells were plated in a 96-well format at 5000 cells per well in a volume of 100 μl per well using the mIL-3 free media.
Proliferation of the BaF3/CRF2-4/zcytor11 cells was assessed using ZCYTO18-CEE protein diluted with mIL-3 free media to 50, 10, 2, 1, 0.5, 0.25, 0.13, 0.06 ng/ml concentrations. 100 μl of the diluted protein was added to the BaF3/CRF2-4/zcytor11 cells. The total assay volume is 200 μl. The assay plates were incubated at 37° C., 5% CO2 for 3 days at which time Alamar Blue (Accumed, Chicago, Ill.) was added at 20 μl/well. Plates were again incubated at 37° C., 5% CO2 for 24 hours. Alamar Blue gives a fluourometric readout based on number of live cells, and is thus a direct measurement of cell proliferation in comparison to a negative control. […]. Plates were read on the Finax™ plate reader (Molecular Devices Sunnyvale, Calif.) using the SoftMax™ Pro program, at wavelengths 544 (Excitation) and 590 (Emmission). […] The response, as measured, was approximately 15-fold over background at the high end of 50 ng/ml down to a 2-fold induction at the low end of 0.06 ng/ml.

BaF3 wild type cells = assay: Alamar Blue proliferation assay, BaF3 wild type cells; type: cell-based, murine; conditions: mIL-3 free media
BaF3/CRF2-4 cells = assay: Alamar Blue proliferation assay, BaF3/CRF2-4 cells; type: cell-based, murine; conditions: mIL-3 free media
Experimental: BaF3, an interleukin-3 (IL-3) dependent pre-lymphoid cell line derived from murine bone marrow (Palacios and Steinmetz, Cell 41: 727-734, 1985; Mathey-Prevot et al., Mol. Cell. Biol. 6: 4133-4135, 1986), was maintained in complete media (RPMI medium (JRH Bioscience Inc., Lenexa, Kans.) supplemented with 10% heat-inactivated fetal calf serum, 2 ng/ml murine IL-3 (mIL-3) (R & D, Minneapolis, Minn.), 2 mM L-glutaMax-1™ (Gibco BRL), 1 mM Sodium Pyruvate (Gibco BRL), and PSN antibiotics (GIBCO BRL)). Prior to electroporation, CRF2-4/pZP7P was prepared and purified using a Qiagen Maxi Prep kit (Qiagen) as per manufacturer's instructions. […]
BaF3/CRF2-4/zcytor11 cells were spun down and washed in the complete media, described in Example 21A above, but without mIL-3 (hereinafter referred to as “mIL-3 free media”). […] Cells were then counted in a hemacytometer. […]
Proliferation of the BaF3/CRF2-4/zcytor11 cells was assessed using ZCYTO18-CEE protein diluted with mIL-3 free media to 50, 10, 2, 1, 0.5, 0.25, 0.13, 0.06 ng/ml concentrations. […] Alamar Blue gives a fluourometric readout based on number of live cells, and is thus a direct measurement of cell proliferation in comparison to a negative control. […] Plates were read on the Finax™ plate reader (Molecular Devices Sunnyvale, Calif.) using the SoftMax™ Pro program, at wavelengths 544 (Excitation) and 590 (Emmission). […]

ZCYTO18 = molecular target: T1, ZCYTO18 (Homo sapiens, UniProt Q9GZX6); conditions: commonly owned PCT/US00/32703; cited from earlier work
T1 sequence (Q9GZX6 34-179): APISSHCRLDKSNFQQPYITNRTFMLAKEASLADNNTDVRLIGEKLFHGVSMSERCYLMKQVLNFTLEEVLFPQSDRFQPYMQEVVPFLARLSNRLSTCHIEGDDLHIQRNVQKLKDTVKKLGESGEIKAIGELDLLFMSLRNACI

K-562 cells = assay: K-562 cytotoxicity assay (MTT); type: cell-based, human; conditions: 72 hours, MTT absorbance
Experimental: as §1, §2

CC1=C(/C=C/C(C)=C/C=C/C(C)=C/C(=O)O)C(C)(C)CCC1 [Retinoic acid, reference compound]
cytotoxicity at 72 h, 100 µM [1]: 62%

B1: ZCYTO18-CEE: ZCYTO18 polypeptide containing C-terminal GluGlu (EE) tag (SEQ ID NO:14), purified from BHK 570 or Sf9 cells (protein)
chain: APISSHCRLDKSNFQQPYITNRTFMLAKEASLADNNTDVRLIGEKLFHGVSMSERCYLMKQVLNFTLEEVLFPQSDRFQPYMQEVVPFLARLSNRLSTCHIEGDDLHIQRNVQKLKDTVKKLGESGEIKAIGELDLLFMSLRNACIEYMPME
proliferative response over background ([2]; 50 ng/ml, mIL-3 free media, 3 days then Alamar Blue): approximately 15 fold
proliferative response (in words) [2]: dose-dependent proliferative response
proliferation in response to ZCYTO18-CEE (BaF3 wild type cells): did not proliferate
proliferation in response to ZCYTO18-CEE (BaF3/CRF2-4 cells): did not proliferate

B2: zcytor16: naturally-expressed soluble receptor antagonist of ZCYTO18 (SEQ ID NO:32, SEQ ID NO:33) (protein, listed as Homo sapiens)
chain: MMPKHCFLGFLISFFLTGVAGTQSTHESLKPQRVQFQSRNFHNILQWQPGRALTGNSSVYFVQYKIYGQRQWKNKEDCWGTQELSCDLTSETSDIQEPYYGRVRAASAGSYSEWSMTPRFTPWWETKIDPPVMNITQVNGSLLVILHAPNLPYRYQKEKNVSIEDYYELLYRVFIINNSLEKEQKVYEGAHRAVEIEALTPHSSYCVVAEIYQPMLDRRSQRSEERCVEIP
binding of ZCYTO18 and antagonism of its activity (ZCYTO18): bind ZCYTO18 and antagonize its activity

B3: ZCYTO18: novel four-helical-bundle cytokine polypeptide, SEQ ID NO:3; annotated in the literature as IL-TIF (protein, listed as Homo sapiens)
chain: MGTLATSCLLLLALLVQGGAAAPISSHCRLDKSNFQQPYITNRTFMLAKEASLADNNTDVRLIGEKLFHGVSMSERCYLMKQVLNFTLEEVLFPQSDRFQPYMQEVVPFLARLSNRLSTCHIEGDDLHIQRNVQKLKDTVKKLGESGEIKAIGELDLLFMSLRNACI
% Cytotoxicity (K-562 cells; 100 ng/ml): 16.2%
% Cytotoxicity (K-562 cells; 300 ng/ml): 32%
proliferative response (in words) [2]: dose-dependent proliferative response
